T1: human MSLN-R1-his protein (human, UniProt Q13421 296-390)
T1 construct: Region 1 of human mesothelin, made in HEK293E cells, His-tagged; also called human MSLN-R1 protein; hMSLN-R1-his; not shown: His tag
T1 chain: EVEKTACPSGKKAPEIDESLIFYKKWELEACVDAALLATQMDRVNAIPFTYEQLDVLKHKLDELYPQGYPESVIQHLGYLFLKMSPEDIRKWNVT

B1: S009-F8-4.5 (antibody, human IgG1, kappa, V domains shown)
VH: QVQLQQPGAELVKPGASVKLSCKASGYTFTIYWMHWVKQRPGQGLEWIGMIHPNSGNTNYNEKFKSKATLTVDKSSSTAYMQLSSLTSEDSAVYYCSLIHWYFDVWGTGTTVTVSS
VL: QIVLTQSPAIMSASPGEKVTMTCSASSSVSYMYWYQQKPGSSPRLLIYDTSNLASGVPVRFSGSGSGTSYSLTISRMEAEDAATYYCQQWSSYPLTFGAGTKLELKR
B2: S009-F8-5.15 (antibody, human IgG1, kappa, V domains shown)
VH: QVQLQQPGTELVKPGASVKLSCKASGYTFTSYWMHWVKQRPGQGLEWIGHSNPSNGGTNYNEKFKSKATLTVDKSSSTAYMQLSSLTSEDSAVYYCARWVRGSNYEYFDVWGTGTTVTVSS
VL: DIVMTQSQKFMSTTVGDRVSIICKASQNVGSAVAWCQQKPGQSPKLLIYSASNRYTGVPDRFTGSGSGTDFTLTISNMQSEDLADYFCQQYSSYPLTFAGGTKLEIKR
B3: S009-F8-8.22 (antibody, human IgG1, kappa, V domains shown)
VH: EVQLQQSGPELVKPGASVKMSCKASGYTFTDYIIHWVKQSHGKSLEWIAYIFPNNGGTGYNQKFRGKATLTVNKSSSTAYMELRSLTSEDSAVYYCARWRLRQYFDVWGTGTTVTVSS
VL: B2 VL with T14I, I22T, S31T, C36Y, A99G
B4: Tab106 (YP218, hIgG1) (antibody, V domains shown)
VH: QQQLEESGGGLVKPEGSLTLTCKASGFDLGFYFYACWVRQAPGKGLEWIACIYTAGSGSTYYASWAKGRFTISKASSTTVTLQMTSLAAADTATYFCARSTANTRSTYYLNLWGPGTLVTVSS
VL: DVVMTQTPASVSEPVGGTVTIKCQASQRISSYLSWYQQKPGQRPKLLIFGASTLASGVPSRFKGSGSGTEYTLTISDLECADAATYYCQSYAYFDSNNWHAFGGGTEVVVRT
notes: also called YP218 human IgG1 antibody
B5: S009-F8-7.5 (antibody, human IgG1, kappa, V domains shown)
VH: DVQLQESGPGLVKPSQSLSLTCSVTGYSITSGYYWNWIRQFPGNKLEWMAYIRYDGSNNYNPSLKNRISIIRDTSKNQFFLRLNSVTTEDTATYYCAKSYYGMDDWGQGISVTVSS
VL: DIQMTQSPASLSASVGETVTITCRTSGDIHNYLAWYQQKQGKSPQLLVYKAKTLENGVPSRFTGSGSGTQFSLKIDSLQPEDFGTYYCQHFWTTPYTFGGGTKLEIKR

Positions count from the first letter of the chain named.

T2 sequence (Q13421 495-606): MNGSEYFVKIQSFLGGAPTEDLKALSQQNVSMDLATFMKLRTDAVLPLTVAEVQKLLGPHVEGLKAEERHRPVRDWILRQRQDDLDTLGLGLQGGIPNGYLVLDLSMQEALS

The first assay has as its target T2, human MSLN-R3-his protein (human, UniProt Q13421 487-598).
T2 construct: Region 3 of human mesothelin, made in HEK293E cells, His-tagged; also called human MSLN-R3 protein; hMSLN-R3-his; not shown: His tag
Briefly: ELISA on coated MSLN-R3; antibody 0.001 nM.
For B1, the OD450 turned out to be 0.05 OD450.
The same measure, in the same setting: under B2 stands 0.05 OD450.
The same measure, in the same setting: under B3 stands 0.04 OD450; under B4, 0.14 OD450.

In another assay the target is T3, human MSLN-R2-his protein (human, UniProt Q13421 391-486).
T3 construct: Region 2 of human mesothelin, made in HEK293E cells, His-tagged; also called human MSLN-R2 protein; hMSLN-R2-his; not shown: His tag
T3 sequence (Q13421 other isoform, or with tags, fused parts or gaps): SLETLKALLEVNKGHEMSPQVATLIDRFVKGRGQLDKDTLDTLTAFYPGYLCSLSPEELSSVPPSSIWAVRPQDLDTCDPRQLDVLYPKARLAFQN
Briefly: ELISA on coated MSLN-R2; antibody 0.01 nM. In general terms: ELISA stands for enzyme-linked immunosorbent assay.
For B1, the OD450 was found to be 0.05 OD450.
Still for that read-out and setting: in the case of B2 it was 0.04 OD450; in that of B3, 0.04 OD450.
Still for that read-out and setting: under B4 stands 0.04 OD450; under B5, 0.31 OD450.

The next assay has as its target T3, human MSLN-R2-his protein. Kind of assay: ELISA on coated MSLN-R2; antibody 0.0001 nM.
B1 showed an OD450 of 0.05 OD450.
On the same count and under the same terms, in the case of B2 it was 0.05 OD450.
The same measure, in the same setting: in the case of B3 it was 0.05 OD450.
Molecule B4 had an OD450 of 0.04 OD450.
Same read-out and setting: in the case of B5 it was 0.06 OD450.

For the next assay, the target named is T3, human MSLN-R2-his protein. Kind of assay: ELISA on coated MSLN-R2; antibody 1 nM.
B1 showed an OD450 of 0.05 OD450.
The same measure, in the same setting: under B2 stands 0.04 OD450; under B3, 0.04 OD450.
Same read-out and setting: under B4 stands 0.04 OD450.
Same read-out and setting: in the case of B5 it was 1.85 OD450.

A further assay addresses T2, human MSLN-R3-his protein. Kind of assay: ELISA on coated MSLN-R3; antibody 100 nM.
As to B1, the OD450 is 0.12 OD450.
The same measure, in the same setting: under B2 stands 0.06 OD450.
On the same count and under the same terms, in the case of B3 it was 0.15 OD450.
The same measure, in the same setting: in the case of B4 it was 2.28 OD450.

For another assay, the target named is T3, human MSLN-R2-his protein. Kind of assay: ELISA on coated MSLN-R2; antibody 0.1 nM.
Procedure: (§1) The plate was sealed with a plastic film and incubated at 4° C. overnight. The next day, the plate was washed twice with PBST, and a blocking buffer [PBS+2% (w/w) BSA] was added for blocking at room temperature for 2 h. The blocking buffer was discarded, and a chimeric antibody or negative control antibody serially diluted from 100 nM was added at 50 μL/well. After incubation at 37° C. for 2 h, the plate was washed 3 times with PBST. […] After incubation at 37° C. for 2 h, the plate was washed 5 times with PBST. A TMB substrate was added at 50 μL/well for incubation at room temperature for 5-10 min, and then a stop solution (1.0 N HCl) was added at 50 μL/well.
For B1, the OD450 was determined as 0.05 OD450.
B2: the OD450 turned out to be 0.04 OD450.
The same measure, in the same setting: in the case of B3 it was 0.04 OD450.
Consider B4, for which the OD450 stood at 0.04 OD450.
On the same count and under the same terms, in the case of B5 it was 1.18 OD450.

The next assay has as its target T1, human MSLN-R1-his protein. Briefly: ELISA on coated MSLN-R1; antibody 0.1 nM.
B1: the OD450 is 0.05 OD450.
Still for that read-out and setting: under B2 stands 0.12 OD450.
On the same count and under the same terms, in the case of B3 it was 1.78 OD450; in that of B5, 0.05 OD450.

The next assay concerns the target T3, human MSLN-R2-his protein. Briefly: ELISA on coated MSLN-R2; antibody 100 nM.
Procedure: as §1
Regarding B1, the OD450 was 0.08 OD450.
Still for that read-out and setting: in the case of B2 it was 0.05 OD450.
B3: the OD450 was 0.09 OD450.
The same measure, in the same setting: under B4 stands 0.22 OD450; under B5, 2.32 OD450.

A further assay deals with T1, human MSLN-R1-his protein. Briefly: ELISA on coated MSLN-R1; antibody 0.01 nM.
Regarding B1, the OD450 was 0.05 OD450.
Still for that read-out and setting: under B2 stands 0.05 OD450.
Consider B3, for which the OD450 came out at 0.61 OD450.
The same measure, in the same setting: in the case of B5 it was 0.04 OD450.

The target of another assay is T3, human MSLN-R2-his protein. Kind of assay: ELISA on coated MSLN-R2; no antibody (blank).
In the case of B1, the OD450 was 0.05 OD450.
Consider B2, for which the OD450 amounted to 0.05 OD450.
Still for that read-out and setting: under B3 stands 0.04 OD450; under B4, 0.04 OD450.
On the same count and under the same terms, in the case of B5 it was 0.05 OD450.

Another assay concerns the target T3, human MSLN-R2-his protein. Kind of assay: ELISA on coated MSLN-R2; antibody 0.001 nM.
Procedure: as §1
Molecule B1 showed an OD450 of 0.05 OD450.
Molecule B2 yielded an OD450 of 0.05 OD450.
On the same count and under the same terms, in the case of B3 it was 0.05 OD450; in that of B4, 0.04 OD450; in that of B5, 0.09 OD450.

A further assay concerns the target T2, human MSLN-R3-his protein. Kind of assay: ELISA on coated MSLN-R3; no antibody (blank).
For B1, the OD450 amounted to 0.06 OD450.
In the case of B2, the OD450 came out at 0.05 OD450.
Still for that read-out and setting: under B3 stands 0.04 OD450; under B4, 0.04 OD450.

For another assay, the target named is T2, human MSLN-R3-his protein. Kind of assay: ELISA on coated MSLN-R3; antibody 0.0001 nM.
Procedure: as §1
Take B1: the OD450 was found to be 0.05 OD450.
B2 displayed an OD450 of 0.04 OD450.
Still for that read-out and setting: under B3 stands 0.04 OD450.
In the case of B4, the OD450 turned out to be 0.09 OD450.

For another assay, the target named is T2, human MSLN-R3-his protein. Kind of assay: ELISA on coated MSLN-R3; antibody 0.01 nM.
Procedure: as §1
The molecule B1 showed an OD450 of 0.04 OD450.
On the same count and under the same terms, under B2 stands 0.04 OD450.
Same read-out and setting: in the case of B3 it was 0.04 OD450; in that of B4, 0.52 OD450.

The next assay concerns the target T1, human MSLN-R1-his protein. Kind of assay: ELISA on coated MSLN-R1; antibody 10 nM.
Procedure: as §1
B1: the OD450 came out at 0.09 OD450.
Take B2: the OD450 amounted to 1.65 OD450.
The same measure, in the same setting: under B3 stands 2.63 OD450.
The same measure, in the same setting: under B5 stands 0.06 OD450.

The next assay concerns the target T1, human MSLN-R1-his protein. Briefly: ELISA on coated MSLN-R1; no antibody (blank).
Molecule B1 registered an OD450 of 0.05 OD450.
In the case of B2, the OD450 came out at 0.05 OD450.
The same measure, in the same setting: in the case of B3 it was 0.06 OD450; in that of B5, 0.05 OD450.

For another assay, the target named is T1, human MSLN-R1-his protein. Kind of assay: ELISA on coated MSLN-R1; antibody 0.001 nM.
Procedure: as §1
Turning to B1, the OD450 is 0.05 OD450.
In the case of B2, the OD450 turned out to be 0.05 OD450.
Same read-out and setting: under B3 stands 0.16 OD450; under B5, 0.05 OD450.

The target in a further assay is T2, human MSLN-R3-his protein. Briefly: ELISA on coated MSLN-R3; antibody 1 nM.
B1: the OD450 was determined as 0.05 OD450.
On the same count and under the same terms, in the case of B2 it was 0.04 OD450; in that of B3, 0.05 OD450; in that of B4, 1.99 OD450.

In the next assay the target is T2, human MSLN-R3-his protein. Briefly: ELISA on coated MSLN-R3; antibody 0.1 nM.
Procedure: as §1
The molecule B1 returned an OD450 of 0.05 OD450.
On to B2, for which the OD450 is 0.04 OD450.
On to B3, for which the OD450 was found to be 0.04 OD450.
Still for that read-out and setting: in the case of B4 it was 1.38 OD450.

The target in the next assay is T2, human MSLN-R3-his protein. Briefly: ELISA on coated MSLN-R3; antibody 10 nM.
Procedure: as §1
For B1, the OD450 amounted to 0.07 OD450.
Still for that read-out and setting: under B2 stands 0.05 OD450; under B3, 0.08 OD450; under B4, 1.81 OD450.

The next assay concerns the target T1, human MSLN-R1-his protein. Briefly: ELISA on coated MSLN-R1; antibody 1 nM.
Procedure: as §1
Molecule B1 showed an OD450 of 0.05 OD450.
On the same count and under the same terms, in the case of B2 it was 0.68 OD450; in that of B3, 2.46 OD450.
The same measure, in the same setting: under B5 stands 0.05 OD450.

The target in another assay is T1, human MSLN-R1-his protein. Kind of assay: ELISA on coated MSLN-R1; antibody 0.0001 nM.
Procedure: as §1
Take B1: the OD450 came out at 0.05 OD450.
Take B2: the OD450 is 0.04 OD450.
Still for that read-out and setting: under B3 stands 0.08 OD450; under B5, 0.04 OD450.

Another assay has as its target T3, human MSLN-R2-his protein. Briefly: ELISA on coated MSLN-R2; antibody 10 nM.
Procedure: as §1
B1: the OD450 came out at 0.06 OD450.
The same measure, in the same setting: under B2 stands 0.05 OD450; under B3, 0.05 OD450; under B4, 0.06 OD450.
Same read-out and setting: under B5 stands 2.18 OD450.

A further assay has as its target T1, human MSLN-R1-his protein. Briefly: ELISA on coated MSLN-R1; antibody 100 nM.
Procedure: as §1
In the case of B1, the OD450 amounted to 0.24 OD450.
On the same count and under the same terms, under B2 stands 2.29 OD450; under B3, 2.63 OD450; under B5, 0.12 OD450.

For the origin of these results see US20250250357A1 (NANJING ZAIMING PHARMACEUTICAL, published 2025).
